# Measured values: patent publication US20240091164
# Target: fluorescein isothiocyanate-tagged BSA (FITC-BSA) (UniProt P02769)
# Sequence (P02769 25-607): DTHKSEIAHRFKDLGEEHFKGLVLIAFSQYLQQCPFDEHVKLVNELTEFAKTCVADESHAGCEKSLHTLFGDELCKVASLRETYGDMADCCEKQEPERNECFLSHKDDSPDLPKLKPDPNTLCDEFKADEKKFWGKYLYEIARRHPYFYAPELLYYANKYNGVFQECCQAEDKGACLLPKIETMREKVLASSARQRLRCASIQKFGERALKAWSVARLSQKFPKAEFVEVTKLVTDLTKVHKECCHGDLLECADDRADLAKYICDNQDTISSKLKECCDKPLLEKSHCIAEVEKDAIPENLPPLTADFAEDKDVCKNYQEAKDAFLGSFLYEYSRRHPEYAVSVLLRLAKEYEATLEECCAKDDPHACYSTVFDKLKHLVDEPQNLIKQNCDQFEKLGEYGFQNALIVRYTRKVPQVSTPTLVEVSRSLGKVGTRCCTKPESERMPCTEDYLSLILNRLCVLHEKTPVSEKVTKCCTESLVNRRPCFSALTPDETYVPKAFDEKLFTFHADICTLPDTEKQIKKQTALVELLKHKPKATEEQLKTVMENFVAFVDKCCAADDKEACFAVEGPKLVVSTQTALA
substance,measurement,value
trypsin,increase in fluorescence from proteolytic cleavage of quenched FITC-BSA,This assay confirmed the ability of trypsin@NP to cleave BSA
